{"source": "patent US20160238596", "tested_on": "Indicator molecule containing the cleavable sequence GPQGIFGQ with a terminal biotin group connected via a polyethylene glycol spacer/linker (intact)"}
{"substance": "Active MMP-9 (Alere San Diego)", "values": [{"measurement": "OD405 (streptavidin plate ELISA with CF1522-AP) at 0.39 ng/ml MMP9", "result": 0.14, "unit": "OD405"}, {"measurement": "OD405 (streptavidin plate ELISA with CF1522-AP) at 0.78 ng/ml MMP9", "result": 0.14, "unit": "OD405"}, {"measurement": "OD405 (streptavidin plate ELISA with CF1522-AP) at 1.56 ng/ml MMP9", "result": 0.14, "unit": "OD405"}, {"measurement": "OD405 (streptavidin plate ELISA with CF1522-AP) at 3.13 ng/ml MMP9", "result": 0.13, "unit": "OD405"}, {"measurement": "OD405 (streptavidin plate ELISA with CF1522-AP) at 6.25 ng/ml MMP9", "result": 0.17, "unit": "OD405"}, {"measurement": "OD405 (streptavidin plate ELISA with CF1522-AP) at 12.50 ng/ml MMP9", "result": 0.18, "unit": "OD405"}, {"measurement": "OD405 (streptavidin plate ELISA with CF1522-AP) at 25.00 ng/ml MMP9", "result": 0.27, "unit": "OD405"}, {"measurement": "OD405 (streptavidin plate ELISA with CF1522-AP) at 50.00 ng/ml MMP9", "result": 0.5, "unit": "OD405"}, {"measurement": "detectable limit for MMP-9 (lateral flow, sample volume of 75 µl)", "result": "approximately 4 ng/ml"}, {"measurement": "reader value (lateral flow, CF1522 gold) at 0.9765625 ng/ml MMP9", "result": 338, "unit": "reader units"}, {"measurement": "reader value (lateral flow, CF1522 gold) at 1.953125 ng/ml MMP9", "result": 343, "unit": "reader units"}, {"measurement": "reader value (lateral flow, CF1522 gold) at 3.90625 ng/ml MMP9", "result": 413, "unit": "reader units"}, {"measurement": "reader value (lateral flow, CF1522 gold) at 7.8125 ng/ml MMP9", "result": 524, "unit": "reader units"}, {"measurement": "reader value (lateral flow, CF1522 gold) at 15.625 ng/ml MMP9", "result": 882, "unit": "reader units"}, {"measurement": "reader value (lateral flow, CF1522 gold) at 31.25 ng/ml MMP9", "result": 2030, "unit": "reader units"}, {"measurement": "reader value (lateral flow, CF1522 gold) at 62.5 ng/ml MMP9", "result": 3830, "unit": "reader units"}, {"measurement": "reader value (lateral flow, CF1522 gold) at 125 ng/ml MMP9", "result": 5580, "unit": "reader units"}, {"measurement": "reader value (lateral flow, CF1522 gold) at 250 ng/ml MMP9", "result": 6220, "unit": "reader units"}, {"measurement": "reader value (lateral flow, CF1522 gold) at 500 ng/ml MMP9", "result": 6730, "unit": "reader units"}, {"measurement": "reader value (lateral flow, CF1522 gold) at 1000 ng/ml MMP9", "result": 6770, "unit": "reader units"}, {"measurement": "sensitivity of the MMP9 standard curves (ELISA and Lateral Flow)", "result": "sensitivity down to 4 ng/ml"}]}
{"substance": "MMP 2 (Enzo)", "values": [{"measurement": "Reader value (lateral flow, CF1522 gold) at 0.5 µg/ml MMP", "result": 1610, "unit": "reader units"}]}
{"substance": "MMP 3 (Enzo)", "values": [{"measurement": "Reader value (lateral flow, CF1522 gold) at 0.5 µg/ml MMP", "result": 336, "unit": "reader units"}]}
{"substance": "MMP 8 (Enzo)", "values": [{"measurement": "Reader value (lateral flow, CF1522 gold) at 0.5 µg/ml MMP", "result": 1140, "unit": "reader units"}]}
{"substance": "MMP 9 (Enzo)", "values": [{"measurement": "Reader value (lateral flow, CF1522 gold) at 0.5 µg/ml MMP", "result": 3840, "unit": "reader units"}]}
{"substance": "MMP 10 (Enzo)", "values": [{"measurement": "Reader value (lateral flow, CF1522 gold) at 0.5 µg/ml MMP", "result": 444, "unit": "reader units"}]}
